Assay results as given in patent publication US7906477.

Assays:
Abz-GKAFRRLY′ = tested on: T1, Abz-GKAFRRLY′; conditions: for Relative hydrolysis rate: scale: relative
T1 sequence: GKAFRRLY

[1] = tested on: T2, ac-GKAFRR-L12ADT (SEQ ID NO:41); conditions: for Relative hydrolysis rate: scale: relative
T2 sequence: GKAFRRX

[2] = tested on: T3, ac-GKAFRRLG (SEQ ID NO:43)
T3 sequence: GKAFRRLG

GKAFR-AMC = tested on: T4, GKAFR-AMC
T4 sequence: GKAFR

[3] = tested on: T5, Y′GSKGHFKL-Dap-K′ (SEQ ID NO:45)
T5 sequence: XGSKGHFKLXX

[4] = tested on: T6, Y′GKAMRQ-Dap-FK′ (SEQ ID NO:39)
T6 sequence: XGKAMRQXFX

[5] = tested on: T7, Y′GKAKPR-Dap-FK′ (SEQ ID NO:37)
T7 sequence: XGKAKPRXFX

[6] = tested on: T8, Y′GSKGHFKL-Dap-F-K′ (SEQ ID NO:40)
T8 sequence: XGSKGHFKLXFX

[7] = tested on: T9, Y′GKAFRLK′-PEGA (SEQ ID NO:52)
T9 sequence: XGKAFRLX

[8] = tested on: T10, Y′GKARAF-Dap-FK′ (SEQ ID NO:36)
T10 sequence: XGKARAFXFX

[9] = tested on: T11, Y′GKAFRRLGK′ (SEQ ID NO:21)
T11 sequence: XGKAFRRLGX

[10] = tested on: soluble non-arginine containing peptides
[11] = tested on: T12, Y′GSKGPFKL-Dap-K′ (SEQ ID NO:46)
T12 sequence: XGSKGPFKLXX

[12] = tested on: T13, Y′GKAFRR-Dap-FK′ (SEQ ID NO:38)
T13 sequence: XGKAFRRXFX

[13] = tested on: T14, Y′GSKGHFHL-Dap-K′ (SEQ ID NO:47)
T14 sequence: XGSKGHFHLXX

Chain of Plasmin (P00747 20-580): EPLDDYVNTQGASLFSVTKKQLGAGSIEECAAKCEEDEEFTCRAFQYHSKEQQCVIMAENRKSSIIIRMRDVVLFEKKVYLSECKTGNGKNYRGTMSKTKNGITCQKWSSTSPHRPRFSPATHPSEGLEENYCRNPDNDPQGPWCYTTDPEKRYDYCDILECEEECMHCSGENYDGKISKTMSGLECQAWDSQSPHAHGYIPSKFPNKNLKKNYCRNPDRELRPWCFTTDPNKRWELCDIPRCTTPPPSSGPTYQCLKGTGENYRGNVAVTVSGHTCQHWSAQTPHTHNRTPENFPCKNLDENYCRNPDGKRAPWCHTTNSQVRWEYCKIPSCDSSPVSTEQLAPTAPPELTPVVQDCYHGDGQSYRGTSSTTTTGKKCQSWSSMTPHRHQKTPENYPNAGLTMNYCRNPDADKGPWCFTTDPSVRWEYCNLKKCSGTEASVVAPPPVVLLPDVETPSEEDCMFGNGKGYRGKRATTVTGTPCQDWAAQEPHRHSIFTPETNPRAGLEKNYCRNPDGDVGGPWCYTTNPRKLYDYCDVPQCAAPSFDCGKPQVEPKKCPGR
Chain of Plasmin (P00747 581-810): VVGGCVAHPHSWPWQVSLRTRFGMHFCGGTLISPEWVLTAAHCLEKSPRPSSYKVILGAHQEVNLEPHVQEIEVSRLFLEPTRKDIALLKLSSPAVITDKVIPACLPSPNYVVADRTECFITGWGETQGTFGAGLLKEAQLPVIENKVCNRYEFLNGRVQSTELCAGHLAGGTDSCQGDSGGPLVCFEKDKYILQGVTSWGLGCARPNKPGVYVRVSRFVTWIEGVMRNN

## Urokinase
Abz-GKAFRRLY′
  hydrolysis by protease: Urokinase showed low activity on the fluorescence quenched peptide substrate
  Relative hydrolysis rate: 17
[1]
  Relative hydrolysis rate: 1

## Plasmin
Abz-GKAFRRLY′
  rate of hydrolysis relative to hK2: Plasmin had a more than 10-fold slower rate of hydrolysis of the peptide substrate than hK2
  Relative hydrolysis rate: 36

## Cathepsin B
Abz-GKAFRRLY′
  hydrolysis by protease: No appreciable hydrolysis of either substrate was observed following incubation with Cathepsin D or Cathepsin B
  Relative hydrolysis rate: 1
[1]
  hydrolysis by protease: No appreciable hydrolysis of either substrate was observed following incubation with Cathepsin D or Cathepsin B
  Relative hydrolysis rate: 1

## human glandular kallikrein 2 (hK2), enzymatically active
Abz-GKAFRRLY′
  Relative hydrolysis rate: 353
[2]
  hydrolysis by hK2 (HPLC): this peptide was rapidly hydrolyzed by hK2
GKAFR-AMC
  Km: Km 146 µM
  kcat: kcat 0.13 sec^-1
  kcat/Km: kcat/Km 895 sec^-1 M^-1
[3]
  digestion by hK2 in solution (fluorescence-quenched peptide): none of these three arginine free peptides were digested by hK2, even after prolonged incubation
[4]
  on-bead digestion with hK2 (fluorescence): reproduced fluorescence when these peptides were digested on-bead with hK2
  time to digestion of the same amount (more than 50%) of peptide: For the other peptides, digestion of the same amount of peptide took 19-29 minutes
[5]
  on-bead digestion with hK2 (fluorescence): reproduced fluorescence when these peptides were digested on-bead with hK2
  time to digestion of the same amount (more than 50%) of peptide: For the other peptides, digestion of the same amount of peptide took 19-29 minutes
[6]
  hK2 mediated hydrolysis (fluorescence, 250 µM substrate, 8 µg/ml hK2): did not show any hydrolysis
[7]
  incubation time until fluorescent beads (on-bead digestion, 4 µg/ml hK2): digested to yield fluorescent beads after 10-12 hours of incubation with 4 µg/ml hK2
[8]
  on-bead digestion with hK2 (fluorescence): reproduced fluorescence when these peptides were digested on-bead with hK2
  time to digestion of the same amount (more than 50%) of peptide: For the other peptides, digestion of the same amount of peptide took 19-29 minutes
[9]
  hK2 hydrolysis rate (fluorescence): Substitution of Dap-F with Leu-Gly resulted in only a modest decrease in hydrolysis rate
[10]
  hydrolysis by hK2 in solution: the soluble non-arginine containing peptides were not hydrolyzed by hK2
[11]
  digestion by hK2 in solution (fluorescence-quenched peptide): none of these three arginine free peptides were digested by hK2, even after prolonged incubation
[12]
  Michaelis-Menten constant (Km): The Michaelis-Menten constant (Km) was determined at 26.5 µM
  hK2 mediated hydrolysis (fluorescence, 250 µM substrate, 8 µg/ml hK2): by far exceeded all other substrates
  kcat: the kcat at 1.09 sec^-1
  kcat/Km ratio: the kcat/Km ratio was 41,132 sec^-1 M^-1
  on-bead digestion with hK2 (fluorescence): reproduced fluorescence when these peptides were digested on-bead with hK2
  time to maximum digestion (70-75%): a value that was reached with Y′GKAFRR-Dap-F-K′ (SEQ ID NO:38) in less than 15 minutes
  time to more than 50% digestion (500 µM peptide, 4 µg/ml hK2): In less than five minutes, more than 50% of the peptide was digested
[13]
  digestion by hK2 in solution (fluorescence-quenched peptide): none of these three arginine free peptides were digested by hK2, even after prolonged incubation
[1]
  hydrolysis by hK2 (4 µg/ml), HPLC: the hK2 prodrug is rapidly cleaved by hK2
  percent of starting prodrug hydrolyzed after 1 hour (4 µg/ml hK2, HPLC): after 1 hour, more than 80% of the starting prodrug was hydrolyzed
  time to 50% hydrolysis (4 µg/ml hK2, HPLC): In 25 min, 50% was hydrolyzed
  Relative hydrolysis rate: 125

## Cathepsin D
Abz-GKAFRRLY′
  hydrolysis by protease: No appreciable hydrolysis of either substrate was observed following incubation with Cathepsin D or Cathepsin B
  Relative hydrolysis rate: 1
[1]
  hydrolysis by protease: No appreciable hydrolysis of either substrate was observed following incubation with Cathepsin D or Cathepsin B
  Relative hydrolysis rate: 1
